B1: CE115HA000 S52cY one-arm antibody (antibody, human IgG1, kappa, L234A L235A, N297A, name in Kabat numbering)
heavy: QVQLVESGGGVVQPGRSLRLSCAASGFTFSNAWMHWVRQAPGKGLEWVAQIKAKYNNYATYYAESVKGRFTISRDDSKNSLYLQMNSLKTEDTAVYYCRYVHYGAYYGVDAWGQGTTVTVSSASTKGPSVFPLAPSSKSTSGGTAALGCLVKDYFPEPVTVSWNSGALTSGVHTFPAVLQSSGLYSLSSVVTVPSSSLGTQTYICNVNHKPSNTKVDKKVEPKSCDKTHTCPPCPAPEAAGGPSVFLFPPKPKDTLMISRTPEVTCVVVDVSHEDPEVKFNWYVDGVEVHNAKTKPREEQYASTYRVVSVLTVLHQDWLNGKEYKCKVSNKALPAPIEKTISKAKGQPREPQVYTLPPSRCELTKNQVSLSCAVKGFYPSDIAVEWESNGQPENNYKTTPPVLDSDGSFFLVSKLTVDKSRWQQGNVFSCSVMHEALHNHYTQKSLSLSPDYKDDDDK
chain: EPKSSDKTHTCPPCPAPELLGGPSVFLFPPKPKDTLMISRTPEVTCVVVDVSHEDPEVKFNWYVDGVEVHNAKTKPREEQYNSTYRVVSVLTVLHQDWLNGKEYKCKVSNKALPAPIEKTISKAKGQPREPQVCTLPPSRDELTKNQVSLWCLVKGFYPSDIAVEWESNGQPENNYKTTPPVLDSDGSFFLYSKLTVDKSRWQQGNVFSCSVMHEALHNRYTQKSLSLSP
light: DIVMTQSPLSLPVTPGEPASISCRSSQSLVHSNRNTYLHWYQQKPGQAPRLLIYKVSNRFSGVPDRFSGSGSGTDFTLKISRVEAEDVGVYYCGQGTQVPYTFGQGTKLEIKRTVAAPSVFIFPPSDEQLKSGTASVVCLLNNFYPREAKVQWKVDNALQSGNSQESVTEQDSKDSTYSLSSTLTLSKADYEKHKVYACEVTHQGLSSPVTKSFNRGEC
B2: CE115HA000 V100cE one-arm antibody (antibody, human IgG1, kappa, L234A L235A, N297A, name in Kabat numbering)
heavy: B1 heavy with Y55S, V109E
chain: B1 chain
light: B1 light
B3: CE115HA000 S74P one-arm antibody (antibody, human IgG1, kappa, L234A L235A, N297A, name in Kabat numbering)
heavy: B1 heavy with Y55S, S77P
chain: B1 chain
light: B1 light
B4: CE115HA000 V100cD one-arm antibody (antibody, human IgG1, kappa, L234A L235A, N297A, name in Kabat numbering)
heavy: B1 heavy with Y55S, V109D
chain: B1 chain
light: B1 light
B5: CE115HA000 V95D one-arm antibody (antibody, human IgG1, kappa, L234A L235A, N297A, name in Kabat numbering)
heavy: B1 heavy with Y55S, V101D
chain: B1 chain
light: B1 light
B6: CE115HA000 V95E one-arm antibody (antibody, human IgG1, kappa, L234A L235A, N297A, name in Kabat numbering)
heavy: B1 heavy with Y55S, V101E
chain: B1 chain
light: B1 light
B7: CE115HA000 S62D one-arm antibody (antibody, human IgG1, kappa, L234A L235A, N297A, name in Kabat numbering)
heavy: B1 heavy with Y55S, S65D
chain: B1 chain
light: B1 light
B8: CE115HA000 T57A one-arm antibody (antibody, human IgG1, kappa, L234A L235A, N297A, name in Kabat numbering)
heavy: B1 heavy with Y55S, T60A
chain: B1 chain
light: B1 light
B9: CE115HA000 W33H one-arm antibody (antibody, human IgG1, kappa, L234A L235A, N297A, name in Kabat numbering)
heavy: B1 heavy with W33H, Y55S
chain: B1 chain
light: B1 light
B10: CE115HA000 T57I one-arm antibody (antibody, human IgG1, kappa, L234A L235A, N297A, name in Kabat numbering)
heavy: B1 heavy with Y55S, T60I
chain: B1 chain
light: B1 light
B11: CE115HA000 W33L one-arm antibody (antibody, human IgG1, kappa, L234A L235A, N297A, name in Kabat numbering)
heavy: B1 heavy with W33L, Y55S
chain: B1 chain
light: B1 light
B12: CE115HA000 S62K one-arm antibody (antibody, human IgG1, kappa, L234A L235A, N297A, name in Kabat numbering)
heavy: B1 heavy with Y55S, S65K
chain: B1 chain
light: B1 light
B13: CE115HA000 W33F one-arm antibody (antibody, human IgG1, kappa, L234A L235A, N297A, name in Kabat numbering)
heavy: B1 heavy with W33F, Y55S
chain: B1 chain
light: B1 light
B14: CE115HA000 T28D one-arm antibody (antibody, human IgG1, kappa, L234A L235A, N297A, name in Kabat numbering)
heavy: B1 heavy with T28D, Y55S
chain: B1 chain
light: B1 light
B15: CE115HA000 T28S one-arm antibody (antibody, human IgG1, kappa, L234A L235A, N297A, name in Kabat numbering)
heavy: B1 heavy with T28S, Y55S
chain: B1 chain
light: B1 light
B16: CE115HA000 V95G one-arm antibody (antibody, human IgG1, kappa, L234A L235A, N297A, name in Kabat numbering)
heavy: B1 heavy with Y55S, V101G
chain: B1 chain
light: B1 light
B17: CE115HA000 V95K one-arm antibody (antibody, human IgG1, kappa, L234A L235A, N297A, name in Kabat numbering)
heavy: B1 heavy with Y55S, V101K
chain: B1 chain
light: B1 light
B18: CE115HA000 V95S one-arm antibody (antibody, human IgG1, kappa, L234A L235A, N297A, name in Kabat numbering)
heavy: B1 heavy with Y55S, V101S
chain: B1 chain
light: B1 light
B19: CE115HA000 V11L one-arm antibody (antibody, human IgG1, kappa, L234A L235A, N297A, name in Kabat numbering)
heavy: B1 heavy with V11L, Y55S
chain: B1 chain
light: B1 light
B20: CE115HA000 W33A one-arm antibody (antibody, human IgG1, kappa, L234A L235A, N297A, name in Kabat numbering)
heavy: B1 heavy with W33A, Y55S
chain: B1 chain
light: B1 light
B21: CE115HA000 T57K one-arm antibody (antibody, human IgG1, kappa, L234A L235A, N297A, name in Kabat numbering)
heavy: B1 heavy with Y55S, T60K
chain: B1 chain
light: B1 light
B22: CE115HA000 Y55D one-arm antibody (antibody, human IgG1, kappa, L234A L235A, N297A, name in Kabat numbering)
heavy: B1 heavy with Y55S, Y58D
chain: B1 chain
light: B1 light
B23: CE115HA000 S77T one-arm antibody (antibody, human IgG1, kappa, L234A L235A, N297A, name in Kabat numbering)
heavy: B1 heavy with Y55S, S80T
chain: B1 chain
light: B1 light
B24: CE115HA000 S62E one-arm antibody (antibody, human IgG1, kappa, L234A L235A, N297A, name in Kabat numbering)
heavy: B1 heavy with Y55S, S65E
chain: B1 chain
light: B1 light
B25: CE115HA000 V100cP one-arm antibody (antibody, human IgG1, kappa, L234A L235A, N297A, name in Kabat numbering)
heavy: B1 heavy with Y55S, V109P
chain: B1 chain
light: B1 light
B26: CE115HA000 W33D one-arm antibody (antibody, human IgG1, kappa, L234A L235A, N297A, name in Kabat numbering)
heavy: B1 heavy with W33D, Y55S
chain: B1 chain
light: B1 light
B27: CE115HA000 S62P one-arm antibody (antibody, human IgG1, kappa, L234A L235A, N297A, name in Kabat numbering)
heavy: B1 heavy with Y55S, S65P
chain: B1 chain
light: B1 light
B28: CE115HA000 S74A one-arm antibody (antibody, human IgG1, kappa, L234A L235A, N297A, name in Kabat numbering)
heavy: B1 heavy with Y55S, S77A
chain: B1 chain
light: B1 light
B29: CE115HA000 V95A one-arm antibody (antibody, human IgG1, kappa, L234A L235A, N297A, name in Kabat numbering)
heavy: B1 heavy with Y55S, V101A
chain: B1 chain
light: B1 light
B30: CE115HA000 T57N one-arm antibody (antibody, human IgG1, kappa, L234A L235A, N297A, name in Kabat numbering)
heavy: B1 heavy with Y55S, T60N
chain: B1 chain
light: B1 light
B31: CE115HA000 W33Y one-arm antibody (antibody, human IgG1, kappa, L234A L235A, N297A, name in Kabat numbering)
heavy: B1 heavy with W33Y, Y55S
chain: B1 chain
light: B1 light

Changes are numbered by the printed parent chain. Numbers in names are those of the source.

The target in this experiment is T1, CD3ε homodimer protein (human, UniProt P07766 23-126, limits assumed, sulfo-tag or biotin label in the ECL assays; amine-coupled to the chip in SPR).
T1 construct: also called human CD3ε homodimer protein; CD3 (CD3ε)
T1 sequence (P07766 23-126 limits assumed): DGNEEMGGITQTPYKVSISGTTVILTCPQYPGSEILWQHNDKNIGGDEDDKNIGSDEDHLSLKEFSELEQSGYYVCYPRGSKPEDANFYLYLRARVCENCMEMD
Description: SPR Biacore T200; CD3ε homodimer on CM4 chip.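 Note: Single-residue variant antibodies injected as analyte over CD3ε homodimer immobilized by amine coupling, run at 25 °C in HBS-EP+ buffer.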
Description: An appropriate amount of CD3ε homodimer protein was immobilized onto Sensor chip CM4 (GE Healthcare Japan Corp.) by the amine coupling method. Then, the antibody having an appropriate concentration was injected thereto as an analyte and allowed to interact with the CD3ε homodimer protein on the sensor chip. Then, the sensor chip was regenerated by the injection of 10 mmol/L glycine-HCl (pH 1.5). The assay was conducted at 25° C., and HBS-EP+ (GE Healthcare Japan Corp.) was used as a running buffer. […] Each parameter was calculated using Biacore T200 Evaluation Software (GE Healthcare Japan Corp.).
Consider B1, for which the “ratio of amounts bound Z=Y/X (altered form / CE115HA000)” value turned out to be 1.11.

B2: the “ratio of amounts bound Z=Y/X (altered form / CE115HA000)” value came to 0.46. As for B3, the “ratio of amounts bound Z=Y/X (altered form / CE115HA000)” value stood at 0.91.

Take B4: the “ratio of amounts bound Z=Y/X (altered form / CE115HA000)” value turned out to be 0.44. Consider B5, for which the “ratio of amounts bound Z=Y/X (altered form / CE115HA000)” value was 0.24.

For the molecule B6, the “ratio of amounts bound Z=Y/X (altered form / CE115HA000)” value amounted to 0.24.

Turning to B7, the “ratio of amounts bound Z=Y/X (altered form / CE115HA000)” value amounted to 0.92. Regarding B8, the “ratio of amounts bound Z=Y/X (altered form / CE115HA000)” value turned out to be 0.98. The result for B9 reads 0.13; that for B10, 0.61; that for B11, 0.1. As for B12, the “ratio of amounts bound Z=Y/X (altered form / CE115HA000)” value is 1.19. For B13, the “ratio of amounts bound Z=Y/X (altered form / CE115HA000)” value was determined as 0.65. Under B14 stands 0.56. Take B15: the “ratio of amounts bound Z=Y/X (altered form / CE115HA000)” value is 0.91. B16: the “ratio of amounts bound Z=Y/X (altered form / CE115HA000)” value was 0.19. On to B17, for which the “ratio of amounts bound Z=Y/X (altered form / CE115HA000)” value was 0.64. Under B18 stands 0.22. Take B19: the “ratio of amounts bound Z=Y/X (altered form / CE115HA000)” value is 1.

Turning to B20, the “ratio of amounts bound Z=Y/X (altered form / CE115HA000)” value turned out to be 0.1. Take B21: the “ratio of amounts bound Z=Y/X (altered form / CE115HA000)” value came to 1.32. Turning to B22, the “ratio of amounts bound Z=Y/X (altered form / CE115HA000)” value came out at 0.45. Turning to B23, the “ratio of amounts bound Z=Y/X (altered form / CE115HA000)” value was 0.9. Regarding B24, the “ratio of amounts bound Z=Y/X (altered form / CE115HA000)” value was 0.92. Under B25 stands 0.2.

Consider B26, for which the “ratio of amounts bound Z=Y/X (altered form / CE115HA000)” value turned out to be 0.1. Take B27: the “ratio of amounts bound Z=Y/X (altered form / CE115HA000)” value was determined as 1. The result for B28 reads 1.05; that for B29, 0.11. On to B30, for which the “ratio of amounts bound Z=Y/X (altered form / CE115HA000)” value was determined as 0.97. On to B31, for which the “ratio of amounts bound Z=Y/X (altered form / CE115HA000)” value was found to be 0.66.

The record behind these values is US20260049138A1 (Chugai, published 2026).
